Results taken from publication PMC11388340, “HIRA complex deposition of histone H3.3 is driven by histone tetramerization and histone-DNA binding”.

How the values were obtained:
HIRA-WB;UBN1-NM;H3.3/H4 = HIRA-WB;UBN1-NM;H3.3/H4 (human;human;Homo sapiens (H3.3); …, UniProt P54198;Q9NPG3;P84243;P62799 1-473;1-584;2-136;2-103, ||); assay: fluorescence polarization; 20 mM HEPES pH 7.5, 150 mM NaCl, 0.5 mM TCEP, 0.001% Tween-20, 1 mg/ml BSA; 10 nM probe; temperature not stated
H3.3/H4 = H3.3/H4 (Homo sapiens (H3.3); Xenopus laevis (H4), UniProt P84243;P62799 2-136;2-103); assay: as above
HIRA-WB;UBN1-NM = HIRA-WB;UBN1-NM (human;human, UniProt P54198;Q9NPG3 1-473;1-584, |); assay: fluorescence polarization; no histones; 20 mM HEPES pH 7.5, 150 mM NaCl, 0.5 mM TCEP, 0.001% Tween-20, 1 mg/ml BSA; 10 nM probe; temperature not stated; details: protein: recombinant;recombinant; tags: N-terminal His;; copies: 1;1; label: 5'-FAM on sense strand; blunt
HIRA-WB;UBN1-NM;ASF1a-C = HIRA-WB;UBN1-NM;ASF1a-C (human;human;human?, UniProt P54198;Q9NPG3;Q9Y294 1-473;1-584;1-156, ||); assay: as above; details: protein: recombinant;recombinant;recombinant; tags: N-terminal His;;GST cleaved with precision protease; copies: 1;1;1; label: 5'-FAM on sense strand; blunt

B1: 10x ATGC 40-mer dsDNA (dsDNA)
DNA 1: ATGCATGCATGCATGCATGCATGCATGCATGCATGCATGC
DNA 2: GCATGCATGCATGCATGCATGCATGCATGCATGCATGCAT
B1 was tested, and the Kd (HIRA-WB;UBN1-NM;H3.3/H4) was 40 nM, the Kd (H3.3/H4) was 240 nM and the Kd (HIRA-WB;UBN1-NM) was 370 nM. For the same binder, the Kd (HIRA-WB;UBN1-NM;ASF1a-C) was 970 nM.
